# Source: the nanobody polyreactivity screen of Harvey et al. (2022)
# Assay: yeast display, Sf9 membrane polyspecificity reagent, FACS + sequencing; frameworks hold sequencing errors
# Outline: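 Galactose-induced (36–48 hours) yeast carrying a synthetic nanobody display library were exposed to 10% biotinylated, detergent-solubilized Sf9 membrane reagent at 4 °C for 1 hour. FACS followed streptavidin microbead enrichment, using low and high (top ~1%) gates for expression (anti-HA) and reagent binding (streptavidin). Colony PCR, MiSeq 2 × 250 sequencing and CDR-length filtering followed. Labels for polyreactivity reflect the gate of origin.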
row,Sequence,polyreactivity (PSR sort gate)
1,QVQLVESGGGLVQAGGSLRLSCAASGSIIGTYAMGWYRQAPGKERELVAAISSSSTRTYYADSVKGRFTISRDTAKNTVYLQMNSLKPEDTAVYYCAATFTAVRGKYGYWGQGTQVTVSS,high polyreactivity
2,QVQLVESGGGLDQAGGSLRLSCAASASTFYANAMGWYRQSPGKEREFVAAIDWSGATTYYADSVKGRFTISRDNAMNTVYLQMNSLKPEDTAVYYCAAEVYFLATGTWYDYWGLGTQVTVSS,high polyreactivity
3,QLQLVESGGGLVQAGGSLRLSCAASGSIFFGNVMGWYRQAPGKERELVAAINTDGRTYYADSVKGRFTISRDNAKNTVYLQMNSLKPEDTAVYYCAARKGYRYYYWGQGTQVTVSS,high polyreactivity
4,QVHLVESGGGLVQAGGSLRLSCAASGFTFDTYDMGWYRQAPGKERELVAAIDRSGVSTYYADSVKGRFTISRDTAKNTVYLQMNSLKQEDPAVYYCAADLWQYDIASWDYTYDYWGQGTQVTVSS,low polyreactivity
5,QVQLVESGRGLVQAGGSLRLSCAASGSTFVKYAMGWYRPAPGKERELVAAMNRSGASTYYADSVKGRFTISRDNAKNTVYLQMNSLKPEDTAVYYCAARFSWLGYYWGQGTQVTVSS,high polyreactivity
6,QVQLVESGGGLVQAGGSLSLSCAASGFIFGAYAMGWYRQAPRKERELVADITQNSGSTYYADSVKGRFTISRDNAKYTVYLQMNSVKPEVTAVYFCNADWETADDYWGQGTQVTVSS,low polyreactivity
7,QVQLVESGGGLVQAGGSLRLSCAASGFTFPYYAMGWYRQAPVKERELVAAISYNGGSTYYADSVKGRFTISRDNAKNNVYLQMNSLKPEDTAVYYCNAVYYDSGVVGYYYWGQGTQVTVSS,high polyreactivity
8,QVQLVESGGGLVQAGGSLRLSCPASGYTFYVYAMGWYRQAPGKERELVAAIGGGSTNYADSVKGRFTISRDNAKNTVYLQMNSLKPEDTAVYYCAARRYYKFYYWGQGTQVTVSS,high polyreactivity
9,QVQLVESGGGLVQAGGSLRLSCAASGLIFYYYAIGWYRQAPGKERELVAAITTGGGTYYADSVKGRFSISRVNAKNTVYLQMNSLKPEDTAVYYCAVYYRSYWGYEYWGQGTQVTVSS,high polyreactivity
10,QVQLVESGGGLVQAGGSLRLSCAASGRTFDYYAMGWFRQAPGKERELVAAISSSGGRTYYADSVKGRFTISRDNAKNTVYLQMNSLKPEDTAVYYCNAVVSRNYEYWGQGTQVTVSS,high polyreactivity
11,QVQLVESGGGLVQAGGSLRLSCAASGGIFYYYAMGWYRQAPGKERELVAAISWSGGSTYYADSVKGRFTISRDNAKNTVYLQMNSLKPEDPAVYYCAPYSDFHYAQLEYDYWGQGTQVTVSS,low polyreactivity
12,QVQLVESGGGLVQAGGSLRLSCAASGITFFWYAMGWYRQAPGKERELVARITSDGSTSYADSVKGRFTISRDNAKNTVYLQMNSLKREDTAVYYCAADYSYIYQSWSGYENDYWGQGTQVTVSS,high polyreactivity
13,QVQLVESGGVLVQAGGSLRLSCAASGSISYSYAMGWYRQAPGKERELVAAITWGGDSTYYADSVKGRFTISRDNAKNTVYLQMNSLKPEDTAVYYCAADLRFTYPVYRAGGGYDYWGQGTQVTVSS,low polyreactivity
14,QVQLVESGGGLVQAGGSLRLSCAASGSILPTNAMGWYRPAPGKERELVASITYNGGRTSYADSVKGRFTISRDNAKNTVYLQMNSLKPEDTAVYYCAARVWYQGYKSMGYWGQGTQVTVSS,high polyreactivity
15,QVQLVDSGGGLLQAGGSLRLSCAASGRTCRGYAMGWYRQAPGKEWELVAAITSGGSTNYADSVKGRFTISRDNATNTVSIQMNRLKPEETAVYYCAAGRSTGQYRYYFWGLGTQVTVSS,high polyreactivity
16,QVQLVDSGGGLVQAGGSLRLSCAASGIIYRFYAMGWYRQAPAQEREMVAAISSGGSTYYADSVKGRCTISRDTAKNTVYLQINRLKPEDTAVYYCNARVRYKRTGRYGYWGQGTQVTVSS,high polyreactivity
17,QVQLVESGGGLVQAGGSLRLSCAASGFTFLVNAMGWYRLAPGKERELVAAISRIGASTYYADSVKVRFTISRDNAKNTVYIQMNSLKPQDTAVNYCAARPWANTYPRRRYDYWGQGTQVTVSS,high polyreactivity
18,QVQLVESGGGLVQAGGSLRLSCAASGSIFYSYAMGWYRQAPGKERELVARITKRGGRTYYADSVKGRFTISRDNAKNTVYLQMNSLKPEDTAVYYCAATTGHRTYRYYYWGQGTQVTVSS,high polyreactivity
19,QDQLVESGGGLVQAGGRLRLSCAASGFTFHKYAMGWSRPAPGKDRELVAAITSSGGSTYYADSVKGRFTISRDYAKNTVYLQMTSLKPEDTAVYYCNARGGGRKSYDYWGQGTQVTVSS,high polyreactivity
20,QVQLVESGGGLVQAGGSLRLSCAASGRIFAYYAMGWYRQAPGKERELVAGINSGGGSTYYADSVKGRFTISRDNAKNTVYLQMNSLKPEDNAVSYCATYYYRRSNRSSTSYDYWGQGTQVTVSS,high polyreactivity
21,QVQHVESGGGLVQAGGSLRLSCAASGRIFYFNAMGWYRPAPGKERELVAAISSSSGSTNYADSVQGRFTISRDNAKNTVYLQMNSLKPEATAVYYCAADGYYQDYTFEYDYWGQGTQVTVSS,low polyreactivity
22,QVQLVESGGGLVQAGGSLRLSCAASGITFYEYAMGWYRQAPGKERELVATITSGGNTNYADSVKGRFTISRDNAKNTVYLQMNSLKPEDTAVYYCNKEWDGDGYTDDWDYDYWGQGTQVTVSS,low polyreactivity

row,Sequence,polyreactivity (PSR sort gate)
1,QVHLVESGGGLVHAGGSLRLTCAASGITSLRYAMGWYRQAPGKEREFVAAIRTIGGSTYYADSVKGRFTISRDNAKNTVYLEMNSLKPEDTPVYYCAALYFLYRSGSSHLDSWGQGTQVTVSS,high polyreactivity
2,QVQLVESGGGLVQAGGSLRLSCAASGRTFPRYAMGWYRQAPGKEMELVAAISVRAGITYYADSVKGRFTISRDNAKNTVYLQMNSLKPEDTAVYYCAKDHWTTSYDEGDYWGQGTQVTVSS,low polyreactivity
3,QVQLVESGGGLVQAGGSLRLSCAASGSTSLFYAMGWYRQAPGKERELVAGITNTARTYADSVKGRFTISRDNAKNTVYLQMKSLKPEDTAVYYCATGYNRWRPTFPFYYWGLGTQVTVSS,high polyreactivity
4,QVQLVETGVGLVQAGGSLRLSCAASGRIFLVYAMGWYRQAPGKERELVAAISWRGGRTYYADSVKGRFTISRDNAKNTVYLQMNSLIPEDTAVYYCAAASKYSQFEYDYWGQGTQVTVSS,high polyreactivity
5,QVQLVESGGGLVQAGGSLRLICAATGRIFSPNAMGWYRQAPGKERELVAAITTSGGITYYADSVKGRFTISRDNAKNTVYLQMNSLKPEDTAVYYCNTGYNGRLRDDYWGQGTQVTVSS,high polyreactivity
6,QVQLVESGAGLVQAGGSRRLSCAASVLIFAWYAMGWSRQAPGNERELVAAITGTGSSTYYADSVKGRFTISRDNAKNTVYLLLNSLKPDDTAVYYCAPTSLPRYYYWGQGTQVTVSS,low polyreactivity
7,QVQLVESGGGLVQAGGSLSLSCAASGSIFGGYTMGRKRQAPGKERELVAAISSVGSTYYADSVKGRFTISRDNAKNTVYLQMNSLKTEDTAVYYCATSTYAYRRNSNYYSLPRFGYWGQGTQVSVSS,high polyreactivity
8,QVQLVESGGGLVQAGGSLRLSCAASGRIFYVYAMGWYRQAPGKEREFVAAITRRSGSTYYADSVKGRFTISRDKAKNTVYLQMNSLKPEDTAVYYCNARLKYAFPQVPPYDYWGQGTQVTVSS,high polyreactivity
9,QVQLVESGGRLVQAGGSLRLSCAASGYTFGSYPMGWYRQAPGNERELVAAISGGGSTNYADSVKGRFTISRDNAKNTVYLQMNSMKPEDTAVYYCAAYPYVYQLRVEEYDHWGQGTQVTVSS,low polyreactivity
10,QVQLVESGGGLVQAGGSLRLSCAASGSIFLVYAMGWYRQAPGKERELVAVISRGGITNYADSVKGRFTISGDNAKNTVYLQMNSLKPEDTAVYYCAAEPRPSWSRYTYGYWGQGTQVTVSS,low polyreactivity
11,QVQLVESGGGLVQAGGSLRLSCAASGSTFWGYTMGWYRPAPGKERELVAAITGSGGSTNYADSVKGRFTISRDNAKNTVNLQMNSLKPEDTAVYYCAADVFTARRRYDYWGQGTQVTVSS,low polyreactivity
12,QVQLVESGGGIVQAGGSLRLSCAASGRIFLTNAMGWYRQAPGKERELVAAITSGGSTYYADSVKGRFTISRDNAKNTVYLQMNSLKPEDTAVFYCNADTDRYWPYEYDYWGQGTQVTVSS,low polyreactivity
13,HVQLVESGGGLVQAGGSLRLSCAASGIIFYQYAMGWYRQAPGKERELVATISSNGGATYADSVKGRFTISRDNAKNTVYLQMNSLKPEDTAVYYCNAGGRYHAPSGDYWGQGTQVTVSS,low polyreactivity
14,QVQLVESGGGLVQAGGSLRLSCAASGSTILKYAMGWYRQAPGKERELVAAITSDGTSYADSVKGRFTISRDNAKNTVYLQMNSLKPEDTAVYYCAIDYRHPTFDYWGQGTQVTVSS,low polyreactivity
15,QVQLVETGGGLVQAGGSLRLSSAASGSTFAWYAMGWYRQAPGKEREFVAAIDQDDDSTYYADSVKGRFTISRDNAKNTVYLQMKSLKPEDTAVYYCAASSPWEQSNDQFYYWGQGTQVTVSS,low polyreactivity
16,QVQLVESGGGLVQAGGSLRLSCAASGRIFGPYTKGWYRQAPGKERELVATISYSGSTTYYADSVKGRFTISRDNAKNTVYLQMNSLKPEDTAVYYCAAYYWARRDWGQGTQVTVSS,high polyreactivity
17,QVQLVESGGGLVQAGGSLRLSCAASGITFYEYAMGWYRQAPGKEREFVAAIDDGDSSTYYADSVKGRFTISRDNAKNTVYLQMNSLKPEDTAVYFCNADPYYDYSLNWGDYWGQGTQVTVSS,low polyreactivity
18,QVQLVESGGGLVQAGGSLRLSCAASGSTFDINAMGWYRQAPGKERELVAAITSGGGTNYADSVKGRFTISRDNAKNTVYLQMNSMKPEDTAVYYCAARVRGKYDYWGQGTQVTVSS,high polyreactivity
19,QVQLVESGGGLVQAGGSLRLSCAASGRTFYPYAMGWYRQAPGKERELVAAINRRGGSTYYADSVKGRFTISRDNAKNTVYLQMNSLKPEDTAVYYCAAKTTTPYRYIYYYWGQGTQVTVSS,high polyreactivity
20,QVQLVESGGGLVQAGGSLRLSCAASGSIFAYYAMGWYRQAPGKESELVARITYSTDGTYYADSVKGRFTISRDNAKNTVYLQMNSLKPEDTAVYYCAVDTWWGFKRYKFDYWGQGTQVTVSS,low polyreactivity
21,QVQLVESGGGLVQAGGSLRLSCAASGRIFGRNAMGWYRQAPGKERELVASITWTGGSTYYADSVKGRFTISRDNAKNTVYLQMNSLKPEDTAVYYCAAETWYGSSWWDAGEYYYWGQGTQVTVSS,high polyreactivity
